The supplement of paper PMC12855868

B1: library; numbered along this chain (parent)
chain: MAAAGGARLLRAASAVLGGPAGRWLHHAGSRAGSSGLLRNRGPGGSAEASRSLSVSARARSSSEDKITVHFINRDGETLTTKGKVGDSLLDVVVENNLDIDGFGACEGTLACSTCHLIFEDHIYEKLDAITDEENDMLDLAYGLTDRSRLGCQICLTKSMDNMTVRVPETVADARQSIDVGKTS

Variants of: B1
Experiment: scaled log2 fold change in cell abundance, elesclomol vs control (0 = silent mean, 1 = nonsense mean) (scaled log2 ratio); higher = higher viability under elesclomol (loss of FDX1 cuproptosis function)
Conditions: glucose 10 mM
[1] = with ABC1 FDX1 KO, elesclomol 5 nM, 14 days
[2] = with HEK293T FDX1 KO, elesclomol 40 nM, 11 days
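Also: variant abundance is its share of total variant reads in each endpoint sample, from next-generation sequencing of the integrated ORF PCR-amplified out of genomic DNA.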

MAAAGGARLLRAASAVLGGPAGRWLHHAGSRAGSSGLLRNRGPGGSAEASRSLSVSARARSSSEDKITVHFINRDGETLTTKGKVGDSLLDVVVENNLDIDGFGACEGTLACGTCHLIFEDHIYEKLDAITDEENDMLDLAYGLTDRSRLGCQICLTKSMDNMTVRVPETVADARQSIDVGKTS [S113G]
scaled log2 fold change [1]: 0.021
scaled log2 fold change [2]: 0.00491

MAAAGGARLLRAASAVLGGPAGRWLHHAGSRAGSSGLLRNRGPGGSAEASRSLSVSARARSSSEDKITVHFINRDGETLTTKGKVGDSLLDVVVENNLDIDGFGACEGTLACFTCHLIFEDHIYEKLDAITDEENDMLDLAYGLTDRSRLGCQICLTKSMDNMTVRVPETVADARQSIDVGKTS [S113F]
scaled log2 fold change [1]: 0.0249
scaled log2 fold change [2]: 0.717

MAAAGGARLLRAASAVLGGPAGRWLHHAGSRAGSSGLLRNRGPGGSAEASRSLSVSARARSSSEDKITVHFINRDGETLTTKGKVGDSLLDVVVENNLDIDGFGACEGTLACDTCHLIFEDHIYEKLDAITDEENDMLDLAYGLTDRSRLGCQICLTKSMDNMTVRVPETVADARQSIDVGKTS [S113D]
scaled log2 fold change [1]: 0.394
scaled log2 fold change [2]: 0.644

MAAAGGARLLRAASAVLGGPAGRWLHHAGSRAGSSGLLRNRGPGGSAEASRSLSVSARARSSSEDKITVHFINRDGETLTTKGKVGDSLLDVVVENNLDIDGFGACEGTLACITCHLIFEDHIYEKLDAITDEENDMLDLAYGLTDRSRLGCQICLTKSMDNMTVRVPETVADARQSIDVGKTS [S113I]
scaled log2 fold change [1]: 0.189
scaled log2 fold change [2]: -0.397

MAAAGGARLLRAASAVLGGPAGRWLHHAGSRAGSSGLLRNRGPGGSAEASRSLSVSARARSSSEDKITVHFINRDGETLTTKGKVGDSLLDVVVENNLDIDGFGACEGTLACHTCHLIFEDHIYEKLDAITDEENDMLDLAYGLTDRSRLGCQICLTKSMDNMTVRVPETVADARQSIDVGKTS [S113H]
scaled log2 fold change [1]: 0.269
scaled log2 fold change [2]: -0.884

MAAAGGARLLRAASAVLGGPAGRWLHHAGSRAGSSGLLRNRGPGGSAEASRSLSVSARARSSSEDKITVHFINRDGETLTTKGKVGDSLLDVVVENNLDIDGFGACEGTLACCTCHLIFEDHIYEKLDAITDEENDMLDLAYGLTDRSRLGCQICLTKSMDNMTVRVPETVADARQSIDVGKTS [S113C]
scaled log2 fold change [1]: -0.028
scaled log2 fold change [2]: 0.699

MAAAGGARLLRAASAVLGGPAGRWLHHAGSRAGSSGLLRNRGPGGSAEASRSLSVSARARSSSEDKITVHFINRDGETLTTKGKVGDSLLDVVVENNLDIDGFGACEGTLACATCHLIFEDHIYEKLDAITDEENDMLDLAYGLTDRSRLGCQICLTKSMDNMTVRVPETVADARQSIDVGKTS [S113A]
scaled log2 fold change [1]: 0.165
scaled log2 fold change [2]: -0.251

MAAAGGARLLRAASAVLGGPAGRWLHHAGSRAGSSGLLRNRGPGGSAEASRSLSVSARARSSSEDKITVHFINRDGETLTTKGKVGDSLLDVVVENNLDIDGFGACEGTLACETCHLIFEDHIYEKLDAITDEENDMLDLAYGLTDRSRLGCQICLTKSMDNMTVRVPETVADARQSIDVGKTS [S113E]
scaled log2 fold change [1]: 0.672
scaled log2 fold change [2]: -0.214
